Measurements taken from publication PMC3506661.

Biological target: BAK (UniProt Q16611)
Test: biotinylated BH3 peptide pull-down from lysate
Conditions: reference: wild type, okadaic acid then UV; sites S117

binding against the reference: gained
Substance: BAK (from UniProt Q16611) S117A, okadaic acid then UV
